# Assay results reported in patent publication US12295987B2, “Method of using a GIP/GLP1 co-agonist for diabetes” (Eli Lilly and Company, priority 2018, dated 2025).
# Numbered stars: 1 amine (or outer) side, 2 acyl side, 3 side chain; on linkers, the order of the positions; unused ones are H or OH. Square brackets hold non-standard residues; d marks the D form. Side chains are listed from the residue outwards. Ends that are not written are not given here. * marks the point of attachment. C20 diacid = O=C(O)CCCCCCCCCCCCCCCCCCC(=O)*; γGlu = O=C(O)[C@H](CCC(=O)[*:2])N[*:1]; AEEA = NCCOCCOCC(=O)O; Aib = CC(C)(N)C(=O)O
# Target: T1, human gastric inhibitory peptide receptor (hGIPR) (Homo sapiens, UniProt P48546)
# T1 construct: expressed in transfected cells; host or cells: HEK293
# T1 sequence (P48546 22-466): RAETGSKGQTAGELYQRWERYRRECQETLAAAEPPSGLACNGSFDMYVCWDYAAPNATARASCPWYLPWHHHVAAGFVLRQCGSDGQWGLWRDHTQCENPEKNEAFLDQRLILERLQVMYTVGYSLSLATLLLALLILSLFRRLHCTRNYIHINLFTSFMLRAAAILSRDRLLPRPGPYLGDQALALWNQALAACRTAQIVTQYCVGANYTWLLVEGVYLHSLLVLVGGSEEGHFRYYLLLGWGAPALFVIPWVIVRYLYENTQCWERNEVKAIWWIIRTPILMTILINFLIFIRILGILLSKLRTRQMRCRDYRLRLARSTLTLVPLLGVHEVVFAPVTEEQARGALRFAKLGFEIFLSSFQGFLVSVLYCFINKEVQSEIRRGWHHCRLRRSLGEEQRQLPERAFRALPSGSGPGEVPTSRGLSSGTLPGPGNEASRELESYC
# Assay: cAMP pharmacological functional assay in presence of 0.1% casein, hGIPR
# Assay type: cell-based
# Conditions: ratio of hGIPR to hGLP1R cAMP EC50 ratios
row,Substance,[hGIPR/hGLP1R] EC50 Ratio
1,Y-Aib-EGTFTSDYSILLDKIAQ-Aib-AFIEYLIK((2-[2-(2-Amino-ethoxy)-ethoxy]-acetyl)2-(γGlu)-CO—(CH2)18—CO2H)GGPSSGAPPPS-NH2 (Y[Aib]EGTFTSDYSILLDKIAQ[Aib]AFIEYLIK([AEEA-AEEA-γGlu-C20 diacid])GGPSSGAPPPS-NH2; N-terminus assumed; SMILES CC[C@H](C)[C@H](NC(=O)[C@H](CCCCN)NC(=O)[C@H](CC(=O)O)NC(=O)[C@H](CC(C)C)NC(=O)[C@H](CC(C)C)NC(=O)[C@@H](NC(=O)[C@H](CO)NC(=O)[C@H](Cc1ccc(O)cc1)NC(=O)[C@H](CC(=O)O)NC(=O)[C@H](CO)NC(=O)[C@@H](NC(=O)[C@H](Cc1ccccc1)NC(=O)[C@@H](NC(=O)CNC(=O)[C@H](CCC(=O)O)NC(=O)C(C)(C)NC(=O)[C@@H](N)Cc1ccc(O)cc1)[C@@H](C)O)[C@@H](C)O)[C@@H](C)CC)C(=O)N[C@@H](C)C(=O)N[C@@H](CCC(N)=O)C(=O)NC(C)(C)C(=O)N[C@@H](C)C(=O)N[C@@H](Cc1ccccc1)C(=O)N[C@H](C(=O)N[C@@H](CCC(=O)O)C(=O)N[C@@H](Cc1ccc(O)cc1)C(=O)N[C@@H](CC(C)C)C(=O)N[C@H](C(=O)N[C@@H](CCCCNC(=O)COCCOCCNC(=O)COCCOCCNC(=O)CC[C@H](NC(=O)CCCCCCCCCCCCCCCCCCC(=O)O)C(=O)O)C(=O)NCC(=O)NCC(=O)N1CCC[C@H]1C(=O)N[C@@H](CO)C(=O)N[C@@H](CO)C(=O)NCC(=O)N[C@@H](C)C(=O)N1CCC[C@H]1C(=O)N1CCC[C@H]1C(=O)N1CCC[C@H]1C(=O)N[C@@H](CO)C(N)=O)[C@@H](C)CC)[C@@H](C)CC) [Peptide 37],9.98
2,Y-Aib-EGTFTSDYSILLDKIAQ-Aib-AFIK((2-[2-(2-Amino-ethoxy)-ethoxy]-acetyl)2-(γGlu)-CO—(CH2)18—CO2H)YLIEGGPSSGAPPPS-NH2 (Y[Aib]EGTFTSDYSILLDKIAQ[Aib]AFIK([AEEA-AEEA-γGlu-C20 diacid])YLIEGGPSSGAPPPS-NH2; N-terminus assumed; SMILES CC[C@H](C)[C@H](NC(=O)[C@H](CCCCN)NC(=O)[C@H](CC(=O)O)NC(=O)[C@H](CC(C)C)NC(=O)[C@H](CC(C)C)NC(=O)[C@@H](NC(=O)[C@H](CO)NC(=O)[C@H](Cc1ccc(O)cc1)NC(=O)[C@H](CC(=O)O)NC(=O)[C@H](CO)NC(=O)[C@@H](NC(=O)[C@H](Cc1ccccc1)NC(=O)[C@@H](NC(=O)CNC(=O)[C@H](CCC(=O)O)NC(=O)C(C)(C)NC(=O)[C@@H](N)Cc1ccc(O)cc1)[C@@H](C)O)[C@@H](C)O)[C@@H](C)CC)C(=O)N[C@@H](C)C(=O)N[C@@H](CCC(N)=O)C(=O)NC(C)(C)C(=O)N[C@@H](C)C(=O)N[C@@H](Cc1ccccc1)C(=O)N[C@H](C(=O)N[C@@H](CCCCNC(=O)COCCOCCNC(=O)COCCOCCNC(=O)CC[C@H](NC(=O)CCCCCCCCCCCCCCCCCCC(=O)O)C(=O)O)C(=O)N[C@@H](Cc1ccc(O)cc1)C(=O)N[C@@H](CC(C)C)C(=O)N[C@H](C(=O)N[C@@H](CCC(=O)O)C(=O)NCC(=O)NCC(=O)N1CCC[C@H]1C(=O)N[C@@H](CO)C(=O)N[C@@H](CO)C(=O)NCC(=O)N[C@@H](C)C(=O)N1CCC[C@H]1C(=O)N1CCC[C@H]1C(=O)N1CCC[C@H]1C(=O)N[C@@H](CO)C(N)=O)[C@@H](C)CC)[C@@H](C)CC) [Peptide 34],10.03
3,Y-Aib-EGTFTSDYSILLDKIAQ-Aib-AFK((2-[2-(2-Amino-ethoxy)-ethoxy]-acetyl)2-(γGlu)-CO—(CH2)18—CO2H)EYLIEGGPSSGAPPPS-NH2 (Y[Aib]EGTFTSDYSILLDKIAQ[Aib]AFK([AEEA-AEEA-γGlu-C20 diacid])EYLIEGGPSSGAPPPS-NH2) [Peptide 33],8.67
4,Y-Aib-EGTFTSDYSILLDKIAQ-Aib-K((2-[2-(2-Amino-ethoxy)-ethoxy]-acetyl)2-(γGlu)-CO—(CH2)18—CO2H)FIEYLIEGGPSSGAPPPS-NH2 (Y[Aib]EGTFTSDYSILLDKIAQ[Aib]K([AEEA-AEEA-γGlu-C20 diacid])FIEYLIEGGPSSGAPPPS-NH2; N-terminus assumed; SMILES CC[C@H](C)[C@H](NC(=O)[C@H](CCCCN)NC(=O)[C@H](CC(=O)O)NC(=O)[C@H](CC(C)C)NC(=O)[C@H](CC(C)C)NC(=O)[C@@H](NC(=O)[C@H](CO)NC(=O)[C@H](Cc1ccc(O)cc1)NC(=O)[C@H](CC(=O)O)NC(=O)[C@H](CO)NC(=O)[C@@H](NC(=O)[C@H](Cc1ccccc1)NC(=O)[C@@H](NC(=O)CNC(=O)[C@H](CCC(=O)O)NC(=O)C(C)(C)NC(=O)[C@@H](N)Cc1ccc(O)cc1)[C@@H](C)O)[C@@H](C)O)[C@@H](C)CC)C(=O)N[C@@H](C)C(=O)N[C@@H](CCC(N)=O)C(=O)NC(C)(C)C(=O)N[C@@H](CCCCNC(=O)COCCOCCNC(=O)COCCOCCNC(=O)CC[C@H](NC(=O)CCCCCCCCCCCCCCCCCCC(=O)O)C(=O)O)C(=O)N[C@@H](Cc1ccccc1)C(=O)N[C@H](C(=O)N[C@@H](CCC(=O)O)C(=O)N[C@@H](Cc1ccc(O)cc1)C(=O)N[C@@H](CC(C)C)C(=O)N[C@H](C(=O)N[C@@H](CCC(=O)O)C(=O)NCC(=O)NCC(=O)N1CCC[C@H]1C(=O)N[C@@H](CO)C(=O)N[C@@H](CO)C(=O)NCC(=O)N[C@@H](C)C(=O)N1CCC[C@H]1C(=O)N1CCC[C@H]1C(=O)N1CCC[C@H]1C(=O)N[C@@H](CO)C(N)=O)[C@@H](C)CC)[C@@H](C)CC) [Peptide 32],6.18
5,"Y-Aib-EGTFTSDYSILLDKK((2-[2-(2-Amino-ethoxy)-ethoxy]-acetyl)2-(γGlu)-CO—(CH2)18—CO2H)AQ-Aib-AFI-(D-Glu)-YLIEGGPSSGAPPPS-NH2 (YXEGTFTSDYSILLDKKAQXAFIXYLIEGGPSSGAPPPS; Aib, D-Glu, lipidated Lys, C-terminal amide; (2)..(2) Xaa at position 2 is Aib; MOD_RES (17)..(17) Lys at position 17 is chemically modified by conjugation of the epsilon-amino group of the Lys side chain with (2-[2-(2-amino-ethoxy)-ethoxy]-acetyl)2-(gamma-Glu)-CO-(CH2)18- CO2H; (20)..(20) Xaa at position 20 is Aib; (24)..(24) Xaa at position 24 is D-Glu; MOD_RES (39)..(39) Ser at position 39 is amidated) [Peptide 84]",9.19
6,"Y-Aib-EGTFTSDYSILLDKK((2-[2-(2-Amino-ethoxy)-ethoxy]-acetyl)2-(γGlu)-CO—(CH2)18—CO2H)AQ-Aib-AFIEYLI-(D-Glu)-GGPSSGAPPPS-NH2 (YXEGTFTSDYSILLDKKAQXAFIEYLIXGGPSSGAPPPS; Aib, D-Glu; K lipidated C20 diacid-γGlu-AEEA2; C-terminal amide; (2)..(2) Xaa at position 2 is Aib; MOD_RES (17)..(17) Lys at position 17 is chemically modified by conjugation of the epsilon-amino group of the Lys side chain with (2-[2-(2-amino-ethoxy)-ethoxy]-acetyl)2-(gamma-Glu)-CO-(CH2)18- CO2H; (20)..(20) Xaa at position 20 is Aib; (28)..(28) Xaa at position 28 is D-Glu; MOD_RES (39)..(39) Ser at position 39 is amidated) [Peptide 83]",4.84
7,Y-Aib-EGTFTSDYSILLDKK((2-[2-(2-Amino-ethoxy)-ethoxy]-acetyl)2-(γGlu)-CO—(CH2)18—CO2H)AQ-Aib-AFIEYLIEGG-NH2 (Y[Aib]EGTFTSDYSILLDKK([AEEA-AEEA-γGlu-C20 diacid])AQ[Aib]AFIEYLIEGG-NH2; N-terminus assumed; SMILES CC[C@H](C)[C@H](NC(=O)[C@H](CC(C)C)NC(=O)[C@H](Cc1ccc(O)cc1)NC(=O)[C@H](CCC(=O)O)NC(=O)[C@@H](NC(=O)[C@H](Cc1ccccc1)NC(=O)[C@H](C)NC(=O)C(C)(C)NC(=O)[C@H](CCC(N)=O)NC(=O)[C@H](C)NC(=O)[C@H](CCCCNC(=O)COCCOCCNC(=O)COCCOCCNC(=O)CC[C@H](NC(=O)CCCCCCCCCCCCCCCCCCC(=O)O)C(=O)O)NC(=O)[C@H](CCCCN)NC(=O)[C@H](CC(=O)O)NC(=O)[C@H](CC(C)C)NC(=O)[C@H](CC(C)C)NC(=O)[C@@H](NC(=O)[C@H](CO)NC(=O)[C@H](Cc1ccc(O)cc1)NC(=O)[C@H](CC(=O)O)NC(=O)[C@H](CO)NC(=O)[C@@H](NC(=O)[C@H](Cc1ccccc1)NC(=O)[C@@H](NC(=O)CNC(=O)[C@H](CCC(=O)O)NC(=O)C(C)(C)NC(=O)[C@@H](N)Cc1ccc(O)cc1)[C@@H](C)O)[C@@H](C)O)[C@@H](C)CC)[C@@H](C)CC)C(=O)N[C@@H](CCC(=O)O)C(=O)NCC(=O)NCC(N)=O) [Peptide 51],3.97
